B1: Cytochrome c-551, P00099 (parent)
chain: MKPYALLSLLATGTLLAQGAWAEDPEVLFKNKGCVACHAIDTKMVGPAYKDVAAKFAGQAGAEAELAQRIKNGSQGVWGPIPMPPNAVSDDEAQTLAKWVLSQK

Variants of B1 are the subject of the data set. The following applies: Pseudomonas aeruginosa (strain ATCC 15692 / DSM 22644 / CIP 104116 / JCM 14847 / LMG 12228 / 1C / PRS 101 / PAO1), pH 5, CD, structure 451C, whole UniProt chain shown.

The record followed here is FireProtDB (doi:10.1074/jbc.274.53.37533).

The term Tm denotes the temperature at which the thermal transition is half complete. F56Y Q59R: where the note is “50.4 °C, Thermal, HCl 10 mM”, the “ddG of mutation (higher = less stable)” value was -6.28 kJ/mol. In addition, for the setting “Thermal, HCl”, the Tm stood at 62.9 °C; the “change of melting temperature, mutant - wild type (higher = more stable)” value (from here on “change of melting temperature, mutant”) amounted to 12.5 °C; the “unfolding enthalpy (van 't Hoff)” value is 228 kJ/mol.
Q59R: the “ddG of mutation (higher = less stable)” value (50.4 °C, Thermal, HCl 10 mM) is -2.09 kJ/mol. Besides, under “Thermal, HCl”, the Tm amounted to 54.7 °C; the “change of melting temperature, mutant” value was 4.3 °C; the “unfolding enthalpy (van 't Hoff)” value was 215 kJ/mol.
Taken in the same sequence, the figures for F56Y E65Y were -10 kJ/mol, 70.7 °C, 20.3 °C and 267 kJ/mol.
Taken in the same sequence, the figures for F56Y were -7.95 kJ/mol, 66.4 °C, 16 °C and 256 kJ/mol.
On the same counts, the results for E65Y are -2.51 kJ/mol, 55.5 °C, 5.1 °C and 240 kJ/mol.
In the case of V35M, the “ddG of mutation (higher = less stable)” value (50.4 °C, Thermal, HCl 10 mM) was -1.67 kJ/mol. Further, where the note is “Thermal, HCl”, the Tm amounted to 53.6 °C; the “change of melting temperature, mutant” value is 3.2 °C; the “unfolding enthalpy (van 't Hoff)” value came out at 183 kJ/mol.
As for F56Y Q59R E65Y, the “ddG of mutation (higher = less stable)” value (50.4 °C, Thermal, HCl 10 mM) was -8.37 kJ/mol. In addition, where the note is “Thermal, HCl”, the Tm came to 57.9 °C; the “change of melting temperature, mutant” value worked out at 17.5 °C; the “unfolding enthalpy (van 't Hoff)” value worked out at 236 kJ/mol.
On the same counts, the results for Q59R E65Y are -2.09 kJ/mol, 54.7 °C, 4.3 °C and 193 kJ/mol.
On the same counts, the results for F29A V35M are -5.86 kJ/mol, 62.4 °C, 12 °C and 195 kJ/mol.
Regarding V100I, where the note is “25 °C, GdnHCl, HCl”, the “ddG of mutation (higher = less stable)” value is -0.251 kJ/mol, the denaturant m value was determined as 2.02 kcal/mol/M and the “denaturant midpoint (higher = more stable)” value turned out to be 2.44 M. Moreover, the “ddG of mutation (higher = less stable)” value (50.4 °C, Thermal, HCl 10 mM) was -4.18 kJ/mol. Moreover, for the setting “Thermal, HCl”, the Tm was 58.8 °C; the “change of melting temperature, mutant” value was determined as 8.4 °C; the “unfolding enthalpy (van 't Hoff)” value worked out at 183 kJ/mol.
F29A: the “ddG of mutation (higher = less stable)” value (50.4 °C, Thermal, HCl 10 mM) is -4.6 kJ/mol. In addition, where the note is “Thermal, HCl”, the Tm stood at 59.9 °C; the “change of melting temperature, mutant” value came to 9.5 °C; the “unfolding enthalpy (van 't Hoff)” value was 202 kJ/mol.
